Source: US20230272012A1, “PEPTIDES AND METHODS OF USE” (REALTA LIFE SCIENCES, INC., priority 2020, published 2023)
Entries after “also recorded” stand apart in the source; their conditions may differ. Bridge positions count the residues as written; N and C are the ends. Square brackets hold non-standard residues; d marks the D form. Ends that are not written are not given here. S5 = C=CCCC[C@](C)(N)C(=O)O; Sar = CNCC(=O)O

How the values were obtained:
Type in all cases: cell-based
PD-1/PD-L1 interaction = target: T1, PD-1/PD-L1 interaction (Homo sapiens, UniProt Q15116+Q9NZQ7); test: PD-1/PD-L1 Blockade Bioassay (Promega); conditions: increasing peptide concentrations; listed as RLS-0118
T1 construct: host or cells: PD-1 effector cells; PD-L1 aAPC/CHO-K1 cells
Description: PD-1 effector cells were incubated with PD1-L1 aAPC cells in the absence or presence of increasing concentrations of anti-PD-1 antibody (positive control) and select PIC1 peptides. Luminescence was detected in luminometer plate reader.
To assess if PIC1 peptides could block PD-1 inhibitory activity in a cell-based assay, select peptides were screened in the PD-1/PD-L1 Blockade Bioassay (Promega). The PD-1/PD-L1 Blockade Bioassay is a biologically relevant MOA-based assay that can be used to measure the potency and stability of antibodies and other biologics designed to block the PD-1/PD-L1 interaction. This bioluminescent cell-based assay is used to measure the potency and stability of molecules targeting PD-1 and consists of two genetically engineered cell lines: aAPC/CHO-K1 Cells are CHO-K1 cells with an engineered cell surface protein designed to activate cognate TCRs in an antigen-independent manner. When the two cell types are co-cultured, the PD-1/PD-L1 interaction inhibits TCR signaling and NFAT-mediated luciferase activity. Addition of an inhibitory molecule that blocks either PD-1 or PD-L1 releases the inhibitory signal and results in TCR signaling and NFAT-mediated luciferase activity.

[1] = tested on: purified human Pan T-cells; test: T-cell exhaustion protocol (Dynabeads re-stimulation); conditions: peptides 2 mg/ml at each stimulation; supernatant ELISA
Description: Purified human pan-T-cells were subject to stimulation with Dynabeads every 48 hours over the period of 8 days with cells also receiving PIC1 peptides (2 mg/ml) at each stimulation. Cells not receiving Dynabeads were run in parallel to assess background levels of Caspase 3/7 signal. At the eighth day, cells were harvested and the levels of Caspase 3/7 determined by ELISA.
Purified human pan-T-cells were subject to stimulation with Dynabeads every 48 hours over the period of 8 days with cells also receiving PIC1 peptides (2 mg/ml) at each stimulation. Cell supernatants were collected at each stimulation and levels of IL-2 and IFN-gamma assayed by ELISA.
T-cell exhaustion is a form of T-cell dysfunction that occurs in cancer. It is defined by poor effector function, reduction in cytokine release (e.g., IL-2, TNF-alpha, IFN-gamma), sustained expression of inhibitory receptors (e.g., PD-1, LAG-3, CD244, CD160) with the progressive loss of effector function due to overstimulation. Exhaustion prevents optimal control of tumor growth. Exhausted T cells are prevalent in the tumor microenvironment (TME) and can lead to T-cell apoptosis. T-cell exhaustion is reversible, and pharmaceutical inhibition of T-cell exhaustion has been considered a promising strategy by many cancer researchers. To ascertain if PIC1 peptides could reverse T-cell exhaustion and increase T cell viability and effector function, a T-cell exhaustion protocol was developed. To induce T-cell exhaustion, purified human Pan T-cells were stimulated with T-Activator CD3/CD28 Dynabeads and cells are washed and re-stimulated every 48 hours. PIC1 peptides were added to the cells after each stimulation with Dynabeads. After three to four stimulations cells were harvested for readouts which consisted of assessing T-cell apoptosis by measuring Caspase 3/7 levels and production of cytokines IL-2 and IFN-gamma which is indicative of T-cell functionality. […] To further evaluate if PIC1 peptides could restore T-cell functionality in cells that have undergone the exhaustion protocol, the inventors next assessed production of cytokines IL-2 and IFN-gamma. Supernatants from the cells after each stimulation were collected and the cytokines measured by ELISA. […] The lower level of IFN-gamma signal compared to IL-2 was consistently seen in this assay.

[2] = tested on: human umbilical endothelial vein cells (HUVECs); test: LPS-induced (non-VEGF mediated) angiogenesis in HUVECs; conditions: peptides 10 mg/ml, LPS 10 ug/ml, overnight
Description: HUVEC cells were incubated with the indicated PIC1 peptides followed by LPS addition and plating onto extracellular matrix. After overnight incubation, evidence of angiogenesis was determined by fluorescence microscopy. Cells receiving LPS and not receiving LPS served as positive and negative controls for angiogenesis.
While VEGF-plays a major role in angiogenesis in cancer, other non-VEGF factors can induce angiogenesis to promote tumor growth. Currently there are no drugs on the market to inhibit non-VEGF mediated angiogenesis. To assess whether the PIC1 peptides could inhibit non-VEGF mediated angiogenesis, the inventors developed a model of angiogenesis using human umbilical endothelial vein cells (HUVECs) in which addition of lipopolysaccharide (LPS) induces angiogenesis. HUVECs were first incubated with Cell Trace Violet dye, followed by addition of PIC1 peptides (10 mg/ml) for 1 hour at 37° C. and then treated with 10 ug/ml of LPS and placement on an extracellular matrix to promote angiogenesis. Cells were incubated overnight at 37° C. in a humidified CO2 incubator. Cells were then visualized for tube formation indicative of angiogenesis by fluorescence microscopy.

CTLA-4 = target: T2, CTLA-4 (Homo sapiens, UniProt P16410); test: CTLA-4 Blockade Bioassay (Promega); parameters: host or cells: Jurkat T cells (CTLA-4 effector cells); aAPC/Raji cells; conditions: increasing concentrations
T2 sequence (P16410 36-223): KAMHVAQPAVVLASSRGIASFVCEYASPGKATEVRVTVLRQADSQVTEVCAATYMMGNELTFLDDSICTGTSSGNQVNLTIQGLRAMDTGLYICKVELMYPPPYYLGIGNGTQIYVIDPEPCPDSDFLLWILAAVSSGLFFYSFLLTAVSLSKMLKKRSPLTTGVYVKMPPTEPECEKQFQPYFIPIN
Description: CTLA-4 effector cells were incubated with aAPC/Raji Cells in the absence or presence of increasing concentrations of anti-CTLA-4 antibody (positive control), RLS-0127*, RLS-0130, RLS-0156, RLS-0170 and RLS-0174. Luminescence was detected in luminometer plate reader.
To assess if PIC1 peptides could block CTLA-4 inhibitory activity in a cell-based assay, select peptides were screened in the CTLA-4 Blockade Bioassay (Promega). This bioluminescent cell-based assay is used to measure the potency and stability of molecules targeting CTLA-4 and consists of two genetically engineered cell lines: CTLA-4 effector cells: Jurkat T cells expressing human CTLA-4 and a luciferase reporter driven by a native promoter which responds to TCR/CD28 activation and aAPC/Raji Cells: Raji cells expressing an engineered cell surface protein designed to activate cognate TCRs in an antigen-independent manner and endogenously expressing CTLA-4 ligands CD80 and CD86. When the two cell types are co-cultured, CTLA-4 competes with CD28 for their shared ligands, CD80 and CD86 and thus inhibits CD28 pathway activation and promoter-mediated luminescence. Addition of a molecule that blocks the interaction of CTLA-4 with its ligands CD80 and CD86 results in promoter-mediated luminescence.

T1 sequence (Q15116 25-288): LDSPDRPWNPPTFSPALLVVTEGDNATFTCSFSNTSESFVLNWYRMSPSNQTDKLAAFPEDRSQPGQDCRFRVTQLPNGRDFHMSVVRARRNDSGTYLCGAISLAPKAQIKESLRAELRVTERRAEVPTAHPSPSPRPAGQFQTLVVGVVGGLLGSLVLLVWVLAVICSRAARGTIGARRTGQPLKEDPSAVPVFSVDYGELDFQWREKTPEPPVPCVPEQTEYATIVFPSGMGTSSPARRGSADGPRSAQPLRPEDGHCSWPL
T1 sequence (Q9NZQ7 19-290): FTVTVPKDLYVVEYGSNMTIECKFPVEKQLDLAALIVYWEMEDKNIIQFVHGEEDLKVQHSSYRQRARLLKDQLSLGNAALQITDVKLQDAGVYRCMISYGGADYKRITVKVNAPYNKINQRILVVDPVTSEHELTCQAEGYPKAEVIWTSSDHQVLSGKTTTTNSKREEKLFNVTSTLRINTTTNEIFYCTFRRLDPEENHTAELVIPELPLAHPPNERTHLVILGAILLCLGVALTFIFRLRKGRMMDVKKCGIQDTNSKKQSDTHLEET

## IALILEP(Sar)S5CQES5AA (IALILEP[Sar][S5]CQE[S5]AA; staple 9-13) [PA-0118]
PD-1/PD-L1 interaction
  inhibition of PD-1/PD-L1 inhibitory signaling (luminescence): increase in luminescence indicative of inhibition of PD-1/PD-L1 inhibitory signaling; also recorded: able to inhibit PD-1/PD-L1 mediated cell signaling
[1]
  IL-2 signal at stimulation 2: did not
[2]
  inhibition of LPS-induced angiogenesis (tube formation): no signs of angiogenesis
CTLA-4
  inhibitory activity in CTLA-4 blockade bioassay (luminescence): did not
